Laboratory results taken from PMC3188500.

Molecular target: TATA binding protein (TBP) (UniProt P20226)
Experiment: fluorescence (FAM/BHQ transcription factor beacon titration)
Conditions: 5 mM MgCl2; no depletant; value stated in text next to ref 35, may come from it; internal BHQ after the T at position 20; 50 mM sodium phosphate pH 7.0, 150 mM NaCl, 5 mM MgCl2, 25 °C; 10 nM labeled TF switch

UniProt P20226, sequence (P20226 whole entry): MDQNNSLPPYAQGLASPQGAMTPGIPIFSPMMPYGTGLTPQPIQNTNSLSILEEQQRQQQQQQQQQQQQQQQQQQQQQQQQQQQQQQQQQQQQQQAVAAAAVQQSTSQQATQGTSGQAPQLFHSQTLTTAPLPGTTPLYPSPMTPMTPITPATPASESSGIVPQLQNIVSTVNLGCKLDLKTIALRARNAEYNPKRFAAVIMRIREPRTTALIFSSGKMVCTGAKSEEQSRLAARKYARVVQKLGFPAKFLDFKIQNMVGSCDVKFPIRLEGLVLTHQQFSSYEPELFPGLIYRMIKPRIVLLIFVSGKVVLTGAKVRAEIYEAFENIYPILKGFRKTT

“TACTTTTATATAAATAAGTTGTGATTTTTATATATTTCAC [TFprobe (transcription factor beacon/switch)]” was tested. Which Kd did it give?
The Kd was 45 nM.
